Experimental data published in US20230391885A1 (INTEGRAL MOLECULAR, published 2023).
Read-outs that look alike come from different tables or passages of the source.

Legend:
[1] = target: T1, Claudin 18.2 (human) (human); assay: cell binding (MFI), titration on cells with native Claudin 18.2; cell type and species not stated for this figure
T1 construct: Multispanning membrane protein; also called hsCLDN18.2

[2] = target: T1, Claudin 18.2 (human); assay: flow cytometry, antibody titration on HEK-293T cells transfected with hsCLDN18.2, APC-labelled anti-human secondary
Excerpt: Fluorescence was detected using an Intellicyt high-throughput flow cytometer (HTFC; Intellicyt, Albuquerque, NM).

[3] = target: T1, Claudin 18.2 (human); assay: flow cytometry, antibody titration on HEK-293T cells transfected with human CLDN18.2
Excerpt: (§1) Fluorescence was detected using an Intellicyt high-throughput flow cytometer (HTFC; Intellicyt, Albuquerque, NM).”).

[4] = target: T1, Claudin 18.2 (human); assay: biolayer interferometry (Octet Red), biotinylated hsCLDN18.2-VLPs on streptavidin tips, antibody in solution, 1:1 model; hsCLDN18.2 on biotinylated VLPs on the biosensor tip
Description: All biosensor studies were performed in PBS buffer supplemented with 1 mg/mL bovine serum albumin (BSA; PBS-B) at 25° C. using a ForteBio Octet Red biosensor system (Pall-ForteBio, Inc., Menlo Park, CA). […] Antibody binding and dissociation kinetics were determined for serial dilutions of antibody in PBS-B starting at 20 μg/mL. Antibody association was measured for 5 minutes followed by dissociation for up to 45 minutes in buffer. Non-specific binding was assessed using sensor tips with VLPs containing only endogenous proteins (Null VLPs). Data analysis was performed using the Octet data analysis program (v8.1; ForteBio) using a standard 1:1 binding model.

[5] = target: T2, Claudin 18.2 (mouse) (mouse, UniProt P56857 10-264); assay: flow cytometry, antibody titration on HEK-293T cells transfected with mouse CLDN18.2
T2 construct: Expressed on transfected HEK-293T cells; also called mouse CLDN18.2
T2 chain: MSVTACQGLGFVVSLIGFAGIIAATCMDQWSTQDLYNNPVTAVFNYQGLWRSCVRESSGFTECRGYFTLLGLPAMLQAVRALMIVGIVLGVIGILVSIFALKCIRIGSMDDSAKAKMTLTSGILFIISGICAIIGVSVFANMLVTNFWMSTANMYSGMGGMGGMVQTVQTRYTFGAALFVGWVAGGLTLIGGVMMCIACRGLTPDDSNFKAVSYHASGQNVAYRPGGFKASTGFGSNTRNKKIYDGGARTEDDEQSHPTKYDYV
Excerpt: as §1

[6] = target: T3, Claudin 18.2 (cynomolgus) (cynomolgus); assay: flow cytometry, antibody titration on HEK-293T cells transfected with cynomolgus CLDN18.2
T3 construct: Expressed on transfected HEK-293T cells; also called cynomolgus CLDN18.2
T3 chain: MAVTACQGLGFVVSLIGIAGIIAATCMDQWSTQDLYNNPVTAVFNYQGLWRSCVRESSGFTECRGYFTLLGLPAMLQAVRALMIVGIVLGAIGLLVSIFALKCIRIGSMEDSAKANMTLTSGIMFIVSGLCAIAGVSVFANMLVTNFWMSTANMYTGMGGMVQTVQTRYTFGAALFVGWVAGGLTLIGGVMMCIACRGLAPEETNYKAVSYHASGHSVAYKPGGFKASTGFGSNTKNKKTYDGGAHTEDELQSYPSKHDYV
Excerpt: as §1

[7] = target: T2, Claudin 18.2 (mouse); assay: flow cytometry, antibody titration on HEK-293T cells transfected with mouse CLDN18.2
Excerpt: as §1

[8] = target: T1, Claudin 18.2 (human); assay: flow cytometry, antibody titration on HEK-293T cells transfected with human CLDN18.2; remark: listed apart in the source
Excerpt: as §1

[9] = target: T3, Claudin 18.2 (cynomolgus); assay: flow cytometry, antibody titration on HEK-293T cells transfected with cynomolgus CLDN18.2
Excerpt: as §1

[10] = target: T1, Claudin 18.2 (human); assay: cell binding (MFI), titration on cells with native Claudin 18.2; cell type and species not stated for this figure; remark: listed apart in the source
[11] = target: T2, Claudin 18.2 (mouse); assay: flow cytometry, antibody titration on HEK-293T cells transfected with mouse CLDN18.2
Excerpt: as §1

[12] = target: T3, Claudin 18.2 (cynomolgus); assay: flow cytometry, antibody titration on HEK-293T cells transfected with cynomolgus CLDN18.2
Excerpt: as §1

[13] = target: T1, Claudin 18.2 (human); assay: cell binding (MFI), titration on cells with native Claudin 18.2; cell type and species not stated for this figure; remark: listed apart in the source
[14] = target: T1, Claudin 18.2 (human); assay: biolayer interferometry (Octet Red), biotinylated hsCLDN18.2-VLPs on streptavidin tips, antibody in solution, 1:1 model

B1: MAb1 (IM-44-09B03-1H1B) (antibody, V domains shown)
VH: EVQLLESGGGLVQPGGSLRLSCAASGFTFSSYGMGWVRQAPGKGLEWVAAITRDSSTNYGAAVKGRATISRDNSKNTLYLQMNSLRAEDTAVYYCAKDASNGYCWYTGRGSYSCGAHHIDAWGQGTLVTVSS
VL: SYELTQPPSVSVSPGQTARITCSGGYNGHYGWYQQKPGQAPVTVIYSNNQRPSGIPERFSGSSSGTTVTLTISGVQAEDEADYYCGGYDSSAGIFGGGTKLTVL
notes: Humanized antibody derived from a chicken scFv; tested as 'purified IgG' (bivalent); The general methods say candidate scFv were converted to human IgG1-Fc (scFv-Fc) format; also called IM-44-09B03-1HB; IM-44-09B03-1HIB
B1 was tested, and the “EC50 (read off the curve)” value [1] was roughly 0.8 nM, the “EC50 (read off the curve)” value [2] was roughly 5 nM and the “EC50 (read off the curve)” value [3] was roughly 4 nM. For the same binder, the Kd [4] was 0.1 nM, the “EC50 (read off the curve)” value [5] was roughly 4 nM and the “EC50 (read off the curve)” value [6] was roughly 5 nM.

B2: MAb2 (IM-44-01E10-1HA) (antibody, V domains shown)
VH: EVQLLESGGGLVQPGGSLRLSCAASGFTFSSYGMSWVRQAPGKGLEWVAGIGSSGSDTWYADSVKGRFTISRDNSKNTLYLQMNSLRAEDTAVYYCAKDATNGYCWYTGRGSYSCGAHHIDAWGQGTLVTVSS
VL: SYELTQPPSVSVSPGQTARITCSGGSGSYGYYGWYQQKPGQAPVTVIYGTNKRPSGIPERFSGSSSGTTVTLTISGVQAEDEADYYCGGYDSSAGIFGGGTKLTVL
notes: Humanized antibody derived from a chicken scFv; tested as 'purified IgG' (bivalent); The general methods say candidate scFv were converted to human IgG1-Fc (scFv-Fc) format
For B2, the “EC50 (read off the curve)” value [2] was roughly 4 nM, the “EC50 (read off the curve)” value [7] was roughly 6 nM and the “EC50 (read off the curve)” value [8] was roughly 6 nM. For the same binder, the Kd [4] was 0.3 nM, the “EC50 (read off the curve)” value [9] was roughly 4 nM and the “EC50 (read off the curve)” value [10] was roughly 4 nM.

B3: MAb3 (IM-44-05H06-1HD) (antibody, V domains shown)
VH: EVQLLESGGGLVQPGGSLRLSCAASGFTFRSYAMMWVRQAPGKGLEWVGEISSTGGSTYYGSAVKGRATISRDNSKNTLYLQMNSLRAEDTAVYYCAKSTYGATWKSADSIDAWGQGTLVTVSS
VL: SYELTQPPSVSVSPGQTARITCSGGYNGHYGWYQQKPGQAPVLVIYSNNQRPSGIPERFSGSSSGTTVTLTISGVQAEDEADYYCGGYDSSAGIFGGGTKLTVL
notes: as for B2
In the case of B3, the “EC50 (read off the curve)” value [11] is reported as roughly 9 nM, the Kd [4] is reported as 1.2 nM and the “EC50 (read off the curve)” value [12] is reported as roughly 9 nM. For the same binder, the “EC50 (read off the curve)” value [13] was roughly 3 nM.

B4: monovalent form of MAb2 (other)
VH: EVQLLESGGGLVQPGGSLRLSCAASGFTFSSYGMSWVRQAPGKGLEWVAGIGSSGSDTWYADSVKGRFTISRDNSKNTLYLQMNSLRAEDTAVYYCAKDATNGYCWYTGRGSYSCGAHHIDAWGQGTLVTVSS
VL: SYELTQPPSVSVSPGQTARITCSGGSGSYGYYGWYQQKPGQAPVTVIYGTNKRPSGIPERFSGSSSGTTVTLTISGVQAEDEADYYCGGYDSSAGIFGGGTKLTVL
notes: also called MAb2 monovalent; monomeric MAb2
In the case of B4, the “EC50 (read off the curve)” value [10] is reported as roughly 10 nM.

B5: monovalent form of MAb1 (other)
VH: EVQLLESGGGLVQPGGSLRLSCAASGFTFSSYGMGWVRQAPGKGLEWVAAITRDSSTNYGAAVKGRATISRDNSKNTLYLQMNSLRAEDTAVYYCAKDASNGYCWYTGRGSYSCGAHHIDAWGQGTLVTVSS
VL: SYELTQPPSVSVSPGQTARITCSGGYNGHYGWYQQKPGQAPVTVIYSNNQRPSGIPERFSGSSSGTTVTLTISGVQAEDEADYYCGGYDSSAGIFGGGTKLTVL
notes: also called MAb1 monovalent; monomeric MAb1
With B5 the “EC50 (read off the curve)” value [1] was roughly 3 nM.

B6: zolbetuximab (antibody, V domains shown)
VH: QVQLQQPGAELVRPGASVKLSCKASGYTFTSYWINWVKQRPGQGLEWIGNIYPSDSYTNYNQKFKDKATLTVDKSSSTAYMQLSSPTSEDSAVYYCTRSWRGNSFDYWGQGTTLTVSS
VL: DIVMTQSPSSLTVTAGEKVTMSCKSSQSLLNSGNQKNYLTWYQQKPGQPPKLLIYWASTRESGVPDRFTGSGSGTDFTLTISSVQAEDLAVYYCQNDYSYPFTFGSGTKLEIK
B6 gave a Kd [14] of 0.3 nM.
